Experiment: GTF activity of strains (PAHBAH assay)
Format: biochemical
Conditions: enzyme expressed in B. subtilis host
Method in brief: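 Glucosyltransferase (GTF) activity of the bacterial strains was measured with the PAHBAH assay. The enzymes tested were truncated GTF variants produced in a Bacillus subtilis expression host. Measurements were split across three separate experiments, and each activity value is reported together with the experiment it came from because results varied slightly between experiments.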

B1: GTF4336T6: T6 C-terminal truncation of GTF4336, SEQ ID NO: 146, strain SG1309 (protein)
chain: INGKQYYVNSDGSVRKNFVFEQDGKSYYFDAETGALATKSQDEFSTEPIKATVDFSSGNQLYKNDDKSLDQLDTFITADAWYRPKSILKDGKTWTASTEADKRPLLMVWWPDKSTQVNYLNYMQNQGLGAGSFSTNSSQESLDQAAKAVQTKIEERIAREGNTNWLRTSIDQFIKTQPGWNSSTENSSYDHLQGGQLLFNNSKGDTGNRTSHANSDYRLLNRTPTNQTGTRKYFKDNSIGGLEFLLANDIDNSNPAVQAEQLNWLHFMMNIGSIMANDPTANFDGLRVDALDNVDADLLQIASDYFKAAYGVDKSEANAIKHLSYLEAWSANDPYYNKDTKGAQLPIDNALRNALTNLLMRDKNTRMQLGDMTAFINSSLNPRGANDKNGERMANYIFTRAHDTEAQTIIQRIIRDRINPNLFGYNFTRDEIKKAFEIYNEDIDKAHKTYASYNLPSVYALMLTNKDSVTRVYYGDLYREDGHYMAKKTPYFDAIDTLLRARIKYVAGGQDMEVKKVGNDGLLTSVRYGKGANNRTDLGTSETRTQGMGVIMTNNYDFRLGSNETVTMNMGRAHRNQLYRPLLLTTKDGIATYFNDSDVPKNLLKRTDWNGNLTFNANDVFGVENVQVSGYLGVWVPVGAKANQDARTQPSNRANSDGQVYKSSAALDSQVMYEAFSNFQAFADDQPELYMNRVLAKNTDLLKAWGVTSVGLPPQYVSSKDGTFLDSTIDNGYAFDDRYDMALSQNNKYGSLEDLLNVLRALHKDGIQAIADWVPDQIYNLPGKEVVNATRVNGYGYHQQGYQIVDQAYVANTRTDGTDYQGKYGGAFLDELKAKYPSIFNRVQISNGKQLPTNEKITKWSAKYFNGTNILGRGINYVLRDDKTNQYFNTSANSQLLPTPLRDTGAITSTQVFQRRGQDVYFLRDNQAVKNEFVQDGNGNWYYFGADGKMTKGAQTINKKDYYFFDNGIQLRNALRRANNGYTYYYGLDGAMVKNAFVDFDDKRKQVRAFTTQG
modifications: T6 C-terminal truncation of GTF4336
Experiment Number 1
  GTF activity of strains: Acitivity: 28.9 U/mL

B2: GTF4991T1: T1 C-terminal truncation of GTF4991, SEQ ID NO: 148, strain SG1310 (protein)
chain: INGKQYYVNSDGSVRKNFVFEQDGKSYYFDAETGALATKSQDEFSTEPIKATVDFSSGNQLYKNDDKSLDQLDTFITADAWYRPKSILKDGKTWTASTEADKRPLLMVWWPDKSTQVNYLNYMQNQGLGAGSFSTNSSQESLDQAAKAVQTKIEERIAREGNTNWLRTSIDQFIKTQPGWNSSTENSSYDHLQGGQLLFNNSKGDTGNRTSHANSDYRLLNRTPTNQTGTRKYFKDNSIGGLEFLLANDIDNSNPAVQAEQLNWLHFMMNIGSIMANDPTANFDGLRVDALDNVDADLLQIASDYFKAAYGVDKSEANAIKHLSYLEAWSANDPYYNKDTKGAQLPIDNALRNALTNLLMRDKNTRMQLGDMTAFINSSLNPRGANDKNGERMANYIFTRAHDTEAQTIIQRIIRDRINPNLFGYNFTRDEIKKAFEIYNEDIDKAHKTYASYNLPSVYALMLTNKDSVTRVYYGDLYREDGHYMAKKTPYFDAIDTLLRARIKYVAGGQDMEVKKVGNDGLLTSVRYGKGANNRTDLGTSETRTQGMGVIMTNNYDFRLGSNETVTMNMGRAHRNQLYRPLLLTTKDGIATYLNDSDVPKNLLKRTDWNGNLTFNANDVFGVENVQVSGYLGVWVPYGAKANQDARTQPSNRANSDGQVYKSSAALDSQVMYEAFSNFQAFADDQPELYMNRVLAKNTDLLKAWGITSVGLPPQYVSSKDGTFLDSIIDNGYAFDDRYDMALSQNNKYGSLEDLLNVLRALHKDGIQAIADWVPDQIYNLPGKEVVNATRVNGYGYHQQGYQIVDQAYVANTRTDGTDYQGKYGGAFLDELKAKYPSIFNRVQISNGKQLPTNEKITKWSAKYFNGTNILGRGINFVLRDDKTNQYFNTSANSQLLPTPLRDTGAIT
modifications: T1 C-terminal truncation of GTF4491
Experiment Number 1
  GTF activity of strains: Acitivity: 23.1 U/mL

B3: GTF4991T2: T2 C-terminal truncation of GTF4991, SEQ ID NO: 150, strain SG1311 (protein)
chain: INGKQYYVNSDGSVRKNFVFEQDGKSYYFDAETGALATKSQDEFSTEPIKATVDFSSGNQLYKNDDKSLDQLDTFITADAWYRPKSILKDGKTWTASTEADKRPLLMVWWPDKSTQVNYLNYMQNQGLGAGSFSTNSSQESLDQAAKAVQTKIEERIAREGNTNWLRTSIDQFIKTQPGWNSSTENSSYDHLQGGQLLFNNSKGDTGNRTSHANSDYRLLNRTPTNQTGTRKYFKDNSIGGLEFLLANDIDNSNPAVQAEQLNWLHFMMNIGSIMANDPTANFDGLRVDALDNVDADLLQIASDYFKAAYGVDKSEANAIKHLSYLEAWSANDPYYNKDTKGAQLPIDNALRNALTNLLMRDKNTRMQLGDMTAFINSSLNPRGANDKNGERMANYIFTRAHDTEAQTIIQRIIRDRINPNLFGYNFTRDEIKKAFEIYNEDIDKAHKTYASYNLPSVYALMLTNKDSVTRVYYGDLYREDGHYMAKKTPYFDAIDTLLRARIKYVAGGQDMEVKKVGNDGLLTSVRYGKGANNRTDLGTSETRTQGMGVIMTNNYDFRLGSNETVTMNMGRAHRNQLYRPLLLTTKDGIATYLNDSDVPKNLLKRTDWNGNLTFNANDVFGVENVQVSGYLGVWVPYGAKANQDARTQPSNRANSDGQVYKSSAALDSQVMYEAFSNFQAFADDQPELYMNRVLAKNTDLLKAWGITSVGLPPQYVSSKDGTFLDSIIDNGYAFDDRYDMALSQNNKYGSLEDLLNVLRALHKDGIQAIADWVPDQIYNLPGKEVVNATRVNGYGYHQQGYQIVDQAYVANTRTDGTDYQGKYGGAFLDELKAKYPSIFNRVQISNGKQLPTNEKITKWSAKYFNGTNILGRGINFVLRDDKTNQYFNTSANSQLLPTPLRDTGAITSTQVFQRRGQDVYFLRDNQTVKNEFVQDGNGNWYYFGGDG
modifications: T2 C-terminal truncation of GTF4491
Experiment Number 1
  GTF activity of strains: Acitivity: 4.9 U/mL

B4: GTF4991T6: T6 C-terminal truncation of GTF4991, SEQ ID NO: 152, strain SG1312 (protein)
chain: INGKQYYVNSDGSVRKNFVFEQDGKSYYFDAETGALATKSQDEFSTEPIKATVDFSSGNQLYKNDDKSLDQLDTFITADAWYRPKSILKDGKTWTASTEADKRPLLMVWWPDKSTQVNYLNYMQNQGLGAGSFSTNSSQESLDQAAKAVQTKIEERIAREGNTNWLRTSIDQFIKTQPGWNSSTENSSYDHLQGGQLLFNNSKGDTGNRTSHANSDYRLLNRTPTNQTGTRKYFKDNSIGGLEFLLANDIDNSNPAVQAEQLNWLHFMMNIGSIMANDPTANFDGLRVDALDNVDADLLQIASDYFKAAYGVDKSEANAIKHLSYLEAWSANDPYYNKDTKGAQLPIDNALRNALTNLLMRDKNTRMQLGDMTAFINSSLNPRGANDKNGERMANYIFTRAHDTEAQTIIQRIIRDRINPNLFGYNFTRDEIKKAFEIYNEDIDKAHKTYASYNLPSVYALMLTNKDSVTRVYYGDLYREDGHYMAKKTPYFDAIDTLLRARIKYVAGGQDMEVKKVGNDGLLTSVRYGKGANNRTDLGTSETRTQGMGVIMTNNYDFRLGSNETVTMNMGRAHRNQLYRPLLLTTKDGIATYLNDSDVPKNLLKRTDWNGNLTFNANDVFGVENVQVSGYLGVWVPYGAKANQDARTQPSNRANSDGQVYKSSAALDSQVMYEAFSNFQAFADDQPELYMNRVLAKNTDLLKAWGITSVGLPPQYVSSKDGTFLDSIIDNGYAFDDRYDMALSQNNKYGSLEDLLNVLRALHKDGIQAIADWVPDQIYNLPGKEVVNATRVNGYGYHQQGYQIVDQAYVANTRTDGTDYQGKYGGAFLDELKAKYPSIFNRVQISNGKQLPTNEKITKWSAKYFNGTNILGRGINFVLRDDKTNQYFNTSANSQLLPTPLRDTGAITSTQVFQRRGQDVYFLRDNQTVKNEFVQDGNGNWYYFGGDGKMTKGAQNINSKDYYFFDNGVQLRNALRRASNGYTYYYGLDGAMVKNAFVDFDDKHKQVRAFTTQG
modifications: T6 C-terminal truncation of GTF4491
Experiment Number 1
  GTF activity of strains: Acitivity: 1.7 U/mL

B5: GTF0974T4: T4 C-terminal truncation of GTF0974 glucosyltransferase, SEQ ID NO: 128, strain SG1316 (protein)
chain: INGKQYYVNSDGSVRKNFVFEQDGKSYYFDAETGALATKSQDEFSTEPIKATVDFSSGNQLYKNDDKSLDQLDTFITADAWYRPKSILKDGKTWTASTEADKRPLLMVWWPDKSTQVNYLNYMQNQGLGAGSFSTNSSQESLDQAAKAVQTKIEERIAREGNTNWLRTSIDQFIKTQPGWNSSTENSSYDHLQGGQLLFNNSKGDTGNRTSHANSDYRLLNRTPTNQTGTRKYFKDNSIGGLEFLLANDIDNSNPAVQAEQLNWLHFMMNIGSIMANDPTANFDGLRVDALDNVDADLLQIASDYFKAAYGVDKSEANAIKHLSYLEAWSANDPYYNKDTKGAQLPIDNALRNALTNLLMRDKNTRMQLGDMTAFINSSLNPRGANDKNGERMANYIFTRAHDTEAQTIIQRIIRDRINPNLFGYNFTRDEIKKAFEIYNEDIDKAHKTYASYNLPSVYALMLTNKDSVTRVYYGDLYREDGHYMAKKTPYFDAIDTLLRARIKYVAGGQDMEVKKVGNDGLLTSVRYGKGANNRTDLGTSETRTQGMGVIMTNNYDFRLGSNETVTMNMGRAHRNQLYRPLLLTTKDGIATYLNDSDVPKKLLKRTDWNGNLTFNANDVFGVENVQVSGYLGVWVPYGAKANQDARTQPSNRANSDGQVYKSSAALDSQVMYEAFSNFQAFADDQPELYMNRVLAKNTDLLKAWGITSVGLPPQYVSSKDGTFLDSTIDNGYAFDDRYDMALSQNNKYGSLEDLLNVLRALHKDGIQAIADWVPDQIYNLPGKEVVNATRVNGYGNHQVGYQIIDQAYVANTRTDGTDYQGKYGGAFLDELKAKYPSIFNRVQISNGKQLPTNEKITKWSAKYFNGTNILGRGINYVLRDDKTNQYFNTSANSQLLPTPLRDTGAITSTQVFQRRGQDVYFLRDNQAVKNEFVQDGNGNWYYFGGDGKMTKGAQNINNKDYYFFDNGIQLRNALRRASNGYTYYYGLDGAMVKNAFVDFDDKHK
modifications: T4 C-terminal truncation of GTF0974
Experiment Number 2
  GTF activity of strains: Acitivity: 47.2 U/mL
Experiment Number 3
  GTF activity of strains: Acitivity: 33.9 U/mL

Reference: patent publication US20180049457A1, “ENZYMATIC SYNTHESIS OF SOLUBLE GLUCAN FIBER” (E I DU PONT DE NEMOURS AND COMPANY, priority 2014, published 2018)
